Data taken from the RNAGym collection of RNA variant scans (doi:10.7554/elife.80360).

B1: HDV Ribozyme (parent)
chain: GGCCGGCAUGGUCCCAGCCUCCUCGCUGGCGCCGGCUGGGCAACAUUCCGAGGGGACCGUCCCCUCGGUAAUGGCGAAUGGGACCCA

Variants of: B1
Assay: self-cleavage, relative activity (ratio to wild type); higher = more cleavage; co-transcriptional

In order of falling self-cleavage:
1. CGCCGGCAUGGUCCCAGCCUCCUCGCUGGCGCCGGCUGGGCAACAUUCCGAGGGGACCGUCCCCUCGGUGAUGGCGAAUGGGACCCA [G1C A70G]  0.453
2. CGCCGGCAUGGUCCCAGCCUCCUCGCUGGCGCCGGCUGGGCAACAUUCCGAGGGGGCCGUCCCCUCGGUAAUGGCGAAUGGGACCCA [G1C A56G]  0.356
3. AGCCGGCAUGGUCCCAGCCUCCUCGCUGGCGCCGGCUGGGCAACAUUCCGAGGGGACCGUCCCCUCUGUAAUGGCGAAUGGGACCCA [G1A G67U]  0.297
4. AGCCGGCAUGGUCCCAGCCUCCUCGCUGGCGCCGGCCGGGCAACAUUCCGAGGGGACCGUCCCCUCGGUAAUGGCGAAUGGGACCCA [G1A U37C]  0.217
5. CGCCGGCAUGGUCUCAGCCUCCUCGCUGGCGCCGGCUGGGCAACAUUCCGAGGGGACCGUCCCCUCGGUAAUGGCGAAUGGGACCCA [G1C C14U]  0.213
6. CGCCGGCAUGGUCCCAGCCUCCUCGCUGGCGCCGGCUGGGCAACAUUCCGAGGGGACCGUACCCUCGGUAAUGGCGAAUGGGACCCA [G1C C61A]  0.208
7. CGCCGGCAUGGUCCCAGCCUCCUCGCUGGCGCCGGCUGGGCAACAUUCCGAGGGGACCGUCCACUCGGUAAUGGCGAAUGGGACCCA [G1C C63A]  0.201
8. CGCCGGCAUGGUCCCAGCCUCCUCGCUGGCGUCGGCUGGGCAACAUUCCGAGGGGACCGUCCCCUCGGUAAUGGCGAAUGGGACCCA [G1C C32U]  0.192
9. CGCCGGCAUGGUCCCAGCCUCCUCGCUGGCGCCGGCUGGGCAACAUUCCGAGGGGCCCGUCCCCUCGGUAAUGGCGAAUGGGACCCA [G1C A56C]  0.172
10. AGCCGGCAUGGUCCCAGCCUCCUCGCUGGCGCCGGCGGGGCAACAUUCCGAGGGGACCGUCCCCUCGGUAAUGGCGAAUGGGACCCA [G1A U37G]  0.158
11. CGCCGGCAUGGUCCCAGCCUCCUCGCUGGCGCCGGCUGGGCAACCUUCCGAGGGGACCGUCCCCUCGGUAAUGGCGAAUGGGACCCA [G1C A45C]  0.145
12. AGCCGGCAUGGUCCCAGCCUCCUCGCUGGCGCCGGCUGUGCAACAUUCCGAGGGGACCGUCCCCUCGGUAAUGGCGAAUGGGACCCA [G1A G39U]  0.135
13. CGCCGGCAUGGUCCCAGACUCCUCGCUGGCGCCGGCUGGGCAACAUUCCGAGGGGACCGUCCCCUCGGUAAUGGCGAAUGGGACCCA [G1C C18A]  0.123
14. AGCCGGCAUGGUCCCAGCCUCCUCGCUGGCGCCGGCUGGACAACAUUCCGAGGGGACCGUCCCCUCGGUAAUGGCGAAUGGGACCCA [G1A G40A]  0.119
15. CGCCGGCAUGGUCCCAGCCUCCUCGCUGGCGCCGGCUGGGCAACAUUCCGAGGGGACCGUCCCCUCGGUUAUGGCGAAUGGGACCCA [G1C A70U]  0.115
16. AGCCUGCAUGGUCCCAGCCUCCUCGCUGGCGCCGGCUGGGCAACAUUCCGAGGGGACCGUCCCCUCGGUAAUGGCGAAUGGGACCCA [G1A G5U]  0.101
17. AGCCGGCAUGGUCCCAGCCUCCUCGCUGGCGCCGGCUUGGCAACAUUCCGAGGGGACCGUCCCCUCGGUAAUGGCGAAUGGGACCCA [G1A G38U]  0.0845
18. CGCCGGCAUGGUCCCAGCCUCCUCGCUGGCGCCGGCUGGGCAACAUUCCGAGGGGACCGUCCCCUCGGUAAUGGCGAUUGGGACCCA [G1C A78U]  0.0755
19. AGCCGGCAUGGUCCCAGCCUCCUCGCUGGCGCCGCCUGGGCAACAUUCCGAGGGGACCGUCCCCUCGGUAAUGGCGAAUGGGACCCA [G1A G35C]  0.0723
20. CGCCGGCAUGGUCCCAGCCUCCUCGCUGGCGCCGGCUGGGCAACAUUCCGAGGGGACCGUCCGCUCGGUAAUGGCGAAUGGGACCCA [G1C C63G]  0.0639
21. AGCCGGCAUGGUCCCAGCCUCCUCGCUGGCGCCGGCUGGUCAACAUUCCGAGGGGACCGUCCCCUCGGUAAUGGCGAAUGGGACCCA [G1A G40U]  0.0615
22. CGCCGACAUGGUCCCAGCCUCCUCGCUGGCGCCGGCUGGGCAACAUUCCGAGGGGACCGUCCCCUCGGUAAUGGCGAAUGGGACCCA [G1C G6A]  0.0554
23. CGCCGGUAUGGUCCCAGCCUCCUCGCUGGCGCCGGCUGGGCAACAUUCCGAGGGGACCGUCCCCUCGGUAAUGGCGAAUGGGACCCA [G1C C7U]  0.0475
24. AGCCGGCAUGGUCCCAGCCUCCUCGCUGGCGCCGGCUGGCCAACAUUCCGAGGGGACCGUCCCCUCGGUAAUGGCGAAUGGGACCCA [G1A G40C]  0.0437
25. CGCCGGCAUGGUCCCAGCCUCCUCGCUGGCGCCGGGUGGGCAACAUUCCGAGGGGACCGUCCCCUCGGUAAUGGCGAAUGGGACCCA [G1C C36G]  0.0437
26. CGCCGGCAUGGUCCCAGUCUCCUCGCUGGCGCCGGCUGGGCAACAUUCCGAGGGGACCGUCCCCUCGGUAAUGGCGAAUGGGACCCA [G1C C18U]  0.0437
27. CGCCGGAAUGGUCCCAGCCUCCUCGCUGGCGCCGGCUGGGCAACAUUCCGAGGGGACCGUCCCCUCGGUAAUGGCGAAUGGGACCCA [G1C C7A]  0.0405
28. AGCCGGCAUGGUCCCAGCCUCCUCGCUGGCGCCGGCUAGGCAACAUUCCGAGGGGACCGUCCCCUCGGUAAUGGCGAAUGGGACCCA [G1A G38A]  0.0332
29. CGCCGGCAUGGUCCCAGCCUCCUCGCUGGCGCCGGCUGGGCGACAUUCCGAGGGGACCGUCCCCUCGGUAAUGGCGAAUGGGACCCA [G1C A42G]  0
30. CGCCGGCAUGGUCCCAGCCUCCUCGCUGGCGCCGGCUGGGCUACAUUCCGAGGGGACCGUCCCCUCGGUAAUGGCGAAUGGGACCCA [G1C A42U]  0
31. CGCCGGCAUGGUCCCAGCCUCCUCGCUGGCGACGGCUGGGCAACAUUCCGAGGGGACCGUCCCCUCGGUAAUGGCGAAUGGGACCCA [G1C C32A]  0
32. CGCCGGCAUGGUCCCAGCUUCCUCGCUGGCGCCGGCUGGGCAACAUUCCGAGGGGACCGUCCCCUCGGUAAUGGCGAAUGGGACCCA [G1C C19U]  0
